This note sets out measurements from patent US20140045930A1 (published 2014).

This assay addresses E. coli ribosomal protein L16 (endogenous) (E. coli, UniProt A7ZSK2 1-136). The assay can be described thus: co-immunoprecipitation with anti-GFP (GFP-nanotrap), SDS-PAGE, identification by LC-MS/MS.

B1: GFP-YcfD (N-terminally GFP-tagged YcfD) (other)
chain: MEYQLTLNWPDFLERHWQKRPVVLKRGFNNFIDPISPDELAGLAMESEVDSRLVSHQDGKWQVSHGPFESYDHLGETNWSLLVQAVNHWHEPTAALMRPFRELPDWRIDDLMISFSVPGGGVGPHLDQYDVFIIQGTGRRRWRVGEKLQMKQHCPHPDLLQVDPFEAIIDEELEPGDILYIPPGFPHEGYALENAMNYSVGFRAPNTRELISGFADYVLQRELGGNYYSDPDVPPRAHPADVLPQEMDKLREMMLELINQPEHFKQWFGEFISQSRHELDIAPPEPPYQPDEIYDALKQGEVLVRLGGLRVLRIGDDVYANGEKIDSPHRPALDALASNIALTAENFGDALEDPSFLAMLAALVNSGYWFFEG
notes: also called green fluorescent protein (GFP)-tagged YcfD
As to B1, the binding result is “binds”.
